Data as given in the supplement of paper PMC9170038.

Assays:
MS2 coat protein [1] = experiment: apparent KD of MS2 coat protein, switch OFF state (with FMN for OFF switches, without FMN for ON switches); designed switch direction (-1 OFF switch, 1 ON switch): -1; higher = weaker reporter binding; details: FMN input: 0 or 200 uM; Eterna round: R93 (includes R88 designs)
In short: (§1)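 Each design's apparent KD comes from the median of binding-curve fits to its normalised clusters. Those clusters carried RNA switches transcribed on-chip from Illumina sequencing clusters. SNAP-549-labelled MS2 coat protein was titrated onto them in twofold steps (0.7 or 1.5 nM to 3 µM; per step 0.8–1.5 h down to 10–20 min). Conditions were 100 mM Tris-HCl pH 7.5, 80 mM KCl, 4 mM MgCl2, without or with constant ligand.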

MS2 coat protein [2] = experiment: apparent KD of MS2 coat protein, switch ON state; designed switch direction (-1 OFF switch, 1 ON switch): -1; higher = weaker reporter binding; details: FMN input: 0 or 200 uM; Eterna round: R93 (includes R88 designs)
In short: as §1

| Sequence | apparent KD of MS2 coat protein (MS2 coat protein [1]) [nM] | apparent KD of MS2 coat protein (MS2 coat protein [2]) [nM] |
| --- | --- | --- |
| AAUAACCGAGGAUAUACAAAACUUGUGAUCUAGUGGAUUUUACAUGAGGAUCACCCAUGUAGAAGGCGGAAAAG [Veenquge] | 212 | 61.3 |
| AAUAACCGAGGAUAUACAUGAGGAUCACCCAUGUGAACAUCCACGAAAAGGAUUCUGUGUAGAAGGCGGAAACC [Soquar] | 13.4 | 15.3 |
| AAUAAGAGAGGAUAUACAUAAUAAAAGAAAAGAAACAAAGAACAUGAGGAUCACCCAUGUAGAAGGCUCAAUAA [Sonbef] | 18.9 | 21.9 |
| AAUAAGUCAGGAUAUGCAAAUAAUAAAUAAAAUAAAAUAAAGCAGAAGGGACAUGAGGAUCACCCAUGUAAAUA [Opal 40] | 41 | 47.9 |
| AAUACACAUGAGGAUCACCCAUGUAAGGAUAUCGAAAAAAAACUAAACAAAAAACAAACGAGAAGGUACAAAAA [Exclusion 1 design 4] | 23.9 | 30.4 |
| AAUAUCGGAGGAUAUGCAUAGAUAAAGAACCAUGUUAAAACACAUGAGGAUCACCCAUGUAGAAGGCCGAUAAA [AJ 9] | 77.5 | 54.1 |
| AAUAUGUAAGGAUAUGCUGCUCGUCACAAAAGUGAUGAGUAGCAGAAGGUACAUGAGGAUCACCCAUGUAAAGA [JL eternac mod 13] | 52 | 30.9 |
| AAUAUGUUAGGAUAUGCGAAGUCAGGACACACACUGACGAAGCAGAAGGAACAUGAGGAUCACCCAUGUAAUAA [JR_Exclusion-4 65% 6] | 26.6 | 27.6 |
| AAUAUGUUAGGAUAUGCUGCUCGUCACAAAAGUGAUGAGUAGCAGAAGGAACAUGAGGAUCACCCAUGUAAAGA [JL eternac mod 12] | 39 | 31.1 |
| AAUGGUGCAGGAUAUACAUGAGGAUCACCCAUGUACAUCAGACAUAUGGUCGAAACAUGUAGAAGGGCACCAAA [Ex 3May 55] | 336 | 107 |
| AAUUAGGUAGGAUAUACAUGAGGAUCACCCAUGUGGGAAAAAAACUACGAAAAAGAAUGUAGAAGGACCUAAAA [Mat - Exclusion 3 - Mayanna mod - D104] | 96.5 | 20.3 |
| ACCUCACAUGAGGAUCACCCAUGUUAGGAUAUGCCCGGCAGGUUCUGACCUGCCUAAAGCAGAAGGAACGUGCG [Beusus] | 57.9 | 17.4 |
| ACCUGACAUGAGGAUCACCCAUGUGAGGAUAUGUACAUCAGGAAAAAAAAACUGAUGUACAGAAGGCACAAGGG [Amethyst 49] | 38.7 | 23.1 |
| ACCUUACAUGAGGAUCACCCAUGUUAGGAUAUCUCGCUCUCGCAGUCACAGCGCAAGCAGAGAAGGGACACGGG [Maretien] | 36.6 | 32.6 |
| ACGAAACAUGAGGAUCACCCAUGUCAGGAUAUGAACGAAAAUAAAUAAAAAUAAAAGUUCAGAAGGGACGACGA [66%, Wbt, 24] | 53 | 39.5 |
| ACGACUAGAGGAUAUACAUGAGGAUCACCCAUGUAACUGUCAGAAAACUGACGGAGAUGUAGAAGGCUAGUCGA [Mat - Exclusion 3 - Neo mod - D80] | 36.1 | 16.7 |
| ACUAACGGAGGAUAUACUAACAAACCUCAAACAUACAUCAAACAUGAGGAUCACCCAUGUAGAAGGCCGAAACU [JR_Exc002_Sub004] | 52.8 | 34.4 |
| AGAAAACAUGAGGAUCACCCAUGUAAGGAUAUGCUAAGGGUGGCUUCGGCCACCCAAUGCAGAAGGUACAAAUA [Excalibur] | 40.7 | 20.5 |
| AGAAAACAUGAGGAUCACCCAUGUGAGGAUAUGCGAAAGAAAGAAAGAAAGAAAGAAAGCAGAAGGCACAAGAA [Ex 1 Tesla 2] | 44.4 | 15.6 |
| AGAAAGUCAGGAUAUGCGAAGGCGUCUGAUAGACGAGGCUAGCAGAAGGGACAUGAGGAUCACCCAUGUGAAAA [Mat - Exclusion 4 - Eli mod - D86] | 133 | 48.4 |
| AGAAUACAUGAGGAUCACCCAUGUGAGGAUAUGUAGAUAAAAAUAAAAUAAAAUAAAUACAGAAGGCGCAAAAG [EX 1 May 20] | 44.9 | 44.5 |
| AGCAAACAUGAGGAUCACCCAUGUGAGGAUAUGAACGAAAAUAAAUAAAAAUAAAAGUUCAGAAGGUACGAGCA [66%, Wbt, 27] | 31.9 | 27.7 |
| AGCACGUCAGGAUAUACGAAAAAAAAGGGUAAACUAAAGGGACAUGAGGAUCACCCAUGUAGAAGGGACAAGCA [Diamond 92] | 245 | 90.8 |
